# Measured values as given in patent US20110263454A1, “Methods of Identifying Functional Characteristics of Promoters, Transcription Modifying Proteins and Transcription Modulating Agents” (Salk Institute for Biological Studies, priority 2008, published 2011).
# Experiments:
# [1] = test system: mPgc1b promoter; assay: NHR-promoter luciferase screen, mPgc1b promoter; format: cell-based, mouse
# Outline: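 Luciferase reporter read-out after co-expression in CV-1 cells of V5H6-tagged receptor (alone or with RXR), the promoter construct and LacZ. Values are luciferase/LacZ relative to a control lacking NHR or ligand; orphan receptors tested ligand-free.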
# [2] = test system: SREBP1c promoter; assay: NHR-promoter luciferase screen, SREBP1c promoter; format: cell-based, mouse
# Outline: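 Values are luciferase activity normalised to LacZ (transfection control) and to a control lacking NHR or ligand. Read-out at 48 h in CV-1 cells carrying 100 ng promoter-reporter, 50 ng receptor (alone or with RXR) and 50 ng LacZ.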
# [3] = test system: hTNFa promoter; assay: NHR-promoter luciferase screen, hTNFa promoter; format: cell-based, human
# Outline: (§1)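 CV-1 cells were co-transfected with 50 ng NHR (homodimer or NHR/RXR heterodimer), 100 ng promoter-luciferase construct and 50 ng LacZ. Luciferase was normalized to LacZ and to a no-NHR/no-ligand control.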
# [4] = test system: hPPARg2 promoter; assay: NHR-promoter luciferase screen, hPPARg2 promoter; format: cell-based, human
# Outline: as §1
# [5] = test system: hMDR1 promoter; assay: NHR-promoter luciferase screen, hMDR1 promoter; format: cell-based, human
# Outline: as §1
# [6] = test system: hPOMC promoter; assay: NHR-promoter luciferase screen, hPOMC promoter; format: cell-based, human
# Outline: as §1
# [7] = SREBP1c promoter, HR component without or with ligand
# [8] = transcription factor +/- ligand, control = 1.00
# [9] = TNFa promoter, HR component without or with ligand
# [10] = MDR1 promoter, HR/ligand component
# [11] = hPOMC promoter, HR/ligand component
molecule,measurement,setting,value
"SHP: Small Heterodimer Partner (NR0B2), cDNA driver (protein, UniProt Q15466 1-257, looked up) Nuclear receptor subfamily 0 …: MSTSQPGACPCQGAASRPAILYALLSSSLKAVPRPRSRCLCRQHRPVQLCAPHRTCREALDVLAKTVAFLRNLPSFWQLPPQDQRRLLQGCWGPLFLLGLAQDAVTFEVAEAPVPSILKKILLEEPSSSGGSGQLPDRPQPSLAAVQWLQCCLESFWSLELSPKEYACLKGTILFNPDVPGLQAASHIGHLQQEAHWVLCEVLEPWCPAAQGRLTRVLLTASTLKSIPTSLLGDLFFRPIIGDVDIAGLLGDMLLLR","Luc. act., normalized to lacZ","[1]; PGC1b promoter reporter, co-transfected HR, without or with its ligand",9.0
same,"Normalized Luc. act., normalized to control","[1]; PGC1b promoter reporter, co-transfected HR, without or with its ligand, relative to control",0.8
same,"luciferase activity normalized to lacZ activity and to a control, mPgc1b","[1]; mPgc1b promoter-luciferase, CV-1 cells, NHR +/- ligand, control = 1.00",0.76
same,"Luc. act., normalized to lacZ",[2]; [7],350.6
same,"Normalized Luc. act., normalized to control",[2]; [7],1.1
same,mSREBP1-c promoter reporter activity,[2]; [8],1.09
same,"Luc. act., normalized to lacZ",[3]; [9],914.4
same,"Normalized Luc. act., normalized to control",[3]; [9],0.9
same,hTNFa promoter reporter activity,[3]; [8],0.93
same,"Luc. act., normalized to lacZ","[4]; PPARG2 promoter, hormone receptor with or without its ligand",1.9
same,"Normalized Luc. act., normalized to control","[4]; PPARG2 promoter, hormone receptor with or without its ligand, relative to control",0.9
same,Results of assays of transcription factor (+/- ligand) with hPPARg2,"[4]; Table 6d, luciferase activity relative to control (control = 1.00)",0.93
same,"Luc. act., normalized to lacZ",[5]; [10],0.3
same,"Normalized Luc. act., normalized to control",[5]; [10],0.8
same,hMDR1 promoter reporter activity,[5]; [8],0.84
same,"Luc. act., normalized to lacZ",[6]; [11],1.9
same,"Normalized Luc. act., normalized to control",[6]; [11],0.4
same,hPOMC promoter reporter activity,[6]; [8],0.43
